Source: US20060258562A1 (HEALOR, published 2006)
Blank lines part the entries; values can stand above or below the binder they belong to.

Target: T1, STAT3 (Signal Transducer and Activator of Transcription 3) (mouse, UniProt P42227 2-770)
T1 construct: Detected by anti-STAT3 Western blot in PKC immunoprecipitates
Assay: co-immunoprecipitation from primary keratinocyte lysates, anti-STAT3 Western blot
Description: FIG. 23 identifies a specific interaction between STAT3 and PKCδ in primary skin keratinocytes. Primary keratinocytes were either untreated (upper panel) or infected for 1 hour with isoform specific, recombinant PKC α, δ, η or ζ adenoviruses (lower panel). Cells were extracted and immunoprecipitated (IP) with isoform specific PKC antibodies. The immunoprecipitates were subjected to Western blot analysis using anti-PKCs or anti-STAT3 antibodies.

T1 sequence (P42227 2-770 limits assumed): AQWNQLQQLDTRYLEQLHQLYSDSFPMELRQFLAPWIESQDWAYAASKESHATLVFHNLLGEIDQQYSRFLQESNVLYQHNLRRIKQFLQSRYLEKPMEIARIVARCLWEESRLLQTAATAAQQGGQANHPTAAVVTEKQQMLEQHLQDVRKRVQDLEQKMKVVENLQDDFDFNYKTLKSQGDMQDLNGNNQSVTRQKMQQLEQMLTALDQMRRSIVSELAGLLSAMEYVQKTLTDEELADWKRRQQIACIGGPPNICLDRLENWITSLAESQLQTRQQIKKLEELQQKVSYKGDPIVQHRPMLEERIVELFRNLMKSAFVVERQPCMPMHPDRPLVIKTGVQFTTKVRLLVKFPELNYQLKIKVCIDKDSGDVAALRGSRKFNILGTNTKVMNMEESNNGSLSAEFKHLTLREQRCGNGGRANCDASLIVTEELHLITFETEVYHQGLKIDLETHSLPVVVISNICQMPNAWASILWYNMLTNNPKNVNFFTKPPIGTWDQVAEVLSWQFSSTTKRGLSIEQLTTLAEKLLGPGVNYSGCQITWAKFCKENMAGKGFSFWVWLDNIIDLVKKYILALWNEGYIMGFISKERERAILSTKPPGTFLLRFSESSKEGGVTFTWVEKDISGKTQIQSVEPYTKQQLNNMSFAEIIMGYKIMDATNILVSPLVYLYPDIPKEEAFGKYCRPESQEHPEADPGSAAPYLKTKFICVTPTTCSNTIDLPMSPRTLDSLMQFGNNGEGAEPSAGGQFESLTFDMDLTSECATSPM

binding result: no binding
B1: PKCζ (protein kinase C zeta) (enzyme, mouse, UniProt Q02956 1-592, looked up)
chain: MPSRTDPKMDRSGGRVRLKAHYGGDILITSVDAMTTFKDLCEEVRDMCGLHQQHPLTLKWVDSEGDPCTVSSQMELEEAFRLVCQGRDEVLIIHVFPSIPEQPGMPCPGEDKSIYRRGARRWRKLYRANGHLFQAKRFNRGAYCGQCSERIWGLSRQGYRCINCKLLVHKRCHVLVPLTCRRHMDSVMPSQEPPVDDKNDGVDLPSEETDGIAYISSSRKHDNIKDDSEDLKPVIDGVDGIKISQGLGLQDFDLIRVIGRGSYAKVLLVRLKKNDQIYAMKVVKKELVHDDEDIDWVQTEKHVFEQASSNPFLVGLHSCFQTTSRLFLVIEYVNGGDLMFHMQRQRKLPEEHARFYAAEICIALNFLHERGIIYRDLKLDNVLLDADGHIKLTDYGMCKEGLGPGDTTSTFCGTPNYIAPEILRGEEYGFSVDWWALGVLMFEMMAGRSPFDIITDNPDMNTEDYLFQVILEKPIRIPRFLSVKASHVLKGFLNKDPKERLGCRPQTGFSDIKSHAFFRSIDWDLLEKKQTLPPFQPQITDDYGLDNFDTQFTSEPVQLTPDDEDVIKRIDQSEFEGFEYINPLLLSAEESV

binding result: no binding
B2: PKCε (protein kinase C epsilon) (enzyme, mouse, UniProt P16054 1-737, looked up)
chain: MVVFNGLLKIKICEAVSLKPTAWSLRHAVGPRPQTFLLDPYIALNVDDSRIGQTATKQKTNSPAWHDEFVTDVCNGRKIELAVFHDAPIGYDDFVANCTIQFEELLQNGSRHFEDWIDLEPEGKVYVIIDLSGSSGEAPKDNEERVFRERMRPRKRQGAVRRRVHQVNGHKFMATYLRQPTYCSHCRDFIWGVIGKQGYQCQVCTCVVHKRCHELIITKCAGLKKQETPDEVGSQRFSVNMPHKFGIHNYKVPTFCDHCGSLLWGLLRQGLQCKVCKMNVHRRCETNVAPNCGVDARGIAKVLADLGVTPDKITNSGQRRKKLAAGAESPQPASGNSPSEDDRSKSAPTSPCDQELKELENNIRKALSFDNRGEEHRASSATDGQLASPGENGEVRPGQAKRLGLDEFNFIKVLGKGSFGKVMLAELKGKDEVYAVKVLKKDVILQDDDVDCTMTEKRILALARKHPYLTQLYCCFQTKDRLFFVMEYVNGGDLMFQIQRSRKFDEPRSRFYAAEVTSALMFLHQHGVIYRDLKLDNILLDAEGHCKLADFGMCKEGIMNGVTTTTFCGTPDYIAPEILQELEYGPSVDWWALGVLMYEMMAGQPPFEADNEDDLFESILHDDVLYPVWLSKEAVSILKAFMTKNPHKRLGCVAAQNGEDAIKQHPFFKEIDWVLLEQKKIKPPFKPRIKTKRDVNNFDQDFTREEPILTLVDEAIIKQINQEEFKGFSYFGEDLMP

binding result: no binding
B3: PKCη (protein kinase C eta) (enzyme, mouse, UniProt P23298 1-683, looked up)
chain: MSSGTMKFNGYLRVRIGEAVGLQPTRWSLRHSLFKKGHQLLDPYLTVSVDQVRVGQTSTKQKTNKPTYNEEFCANVTDGGHLELAVFHETPLGYDHFVANCTLQFQELLRTAGTSDTFEGWVDLEPEGKVFVVITLTGSFTEATLQRDRIFKHFTRKRQRAMRRRVHQVNGHKFMATYLRQPTYCSHCREFIWGVFGKQGYQCQVCTCVVHKRCHHLIVTACTCQNNINKVDAKIAEQRFGINIPHKFNVHNYKVPTFCDHCGSLLWGIMRQGLQCKICKMNVHIRCQANVAPNCGVNAVELAKTLAGMGLQPGNISPTSKLISRSTLRRQGKEGSKEGNGIGVNSSSRFGIDNFEFIRVLGKGSFGKVMLARIKETGELYAVKVLKKDVILQDDDVECTMTEKRILSLARNHPFLTQLFCCFQTPDRLFFVMEFVNGGDLMFHIQKSRRFDEARARFYAAEIISALMFLHEKGIIYRDLKLDNVLLDHEGHCKLADFGMCKEGICNGVTTATFCGTPDYIAPEILQEMLYGPAVDWWAMGVLLYEMLCGHAPFEAENEDDLFEAILNDEVVYPTWLHEDATGILKSFMTKNPTMRLGSLTQGGEHEILRHPFFKEIDWAQLNHRQLEPPFRPRIKSREDVSNFDPDFIKEEPVLTPIDEGHLPMINQDEFRNFSYVSPELQL

binding result: no binding
B4: PKCα (protein kinase C alpha) (enzyme)
chain: not shown
